Assay results as given in the Immune Epitope Database (IEDB).

Experiments:
HLA-A*31:01 [1] = assay: IEDB peptide-MHC binding, purified MHC/competitive/fluorescence; filed as Kd, often an IC50 or EC50 that approximates it; ≥ and ≤ were set here for values at or beyond the usual limits of such assays; settings: source organism: Lyssavirus rabies
HLA-B*15:09 = assay: as above; settings: source organism: Lyssavirus rabies
HLA-B*15:17 = assay: as above
HLA-A*30:01 = assay: as above; settings: source organism: Lyssavirus rabies
HLA-A*11:01 [2] = assay: as above; settings: source organism: Lyssavirus rabies
HLA-A*02:06 = assay: as above
HLA-A*01:01 = assay: IEDB peptide-MHC binding, purified MHC/direct/fluorescence; filed as Kd, often an IC50 or EC50 that approximates it; ≥ and ≤ were set here for values at or beyond the usual limits of such assays
HLA-B*27:05 = assay: as above
HLA-B*73:01 = assay: as above; settings: source organism: Lyssavirus rabies
HLA-B*08:01 = assay: as above; settings: source organism: Lyssavirus rabies
HLA-A*03:01 = assay: as above
HLA-A*69:01 [3] = assay: as above; settings: source organism: Lyssavirus rabies
HLA-B*07:02 = assay: as above
HLA-B*57:01 [4] = assay: as above
HLA-B*48:01 = assay: as above
HLA-A*26:03 [5] = assay: as above; settings: source organism: Lyssavirus rabies
HLA-B*58:01 = assay: as above
HLA-B*15:01 [6] = assay: as above
HLA-A*02:01 [7] = assay: as above
HLA-B*18:01 [8] = assay: as above
HLA-A*68:02 [9] = assay: as above; settings: source organism: Lyssavirus rabies
HLA-B*35:01 = assay: IEDB peptide-MHC binding, purified MHC/competitive/fluorescence; filed as Kd, often an IC50 or EC50 that approximates it; ≥ and ≤ were set here for values at or beyond the usual limits of such assays; settings: source organism: Orthomarburgvirus marburgense
HLA-A*69:01 [10] = assay: as above; settings: source organism: Orthomarburgvirus marburgense
HLA-A*26:02 = assay: as above; settings: source organism: Orthomarburgvirus marburgense
HLA-A*26:03 [11] = assay: as above; settings: source organism: Orthomarburgvirus marburgense
HLA-A*02:01 [12] = assay: as above; settings: source organism: Orthomarburgvirus marburgense
HLA-A*68:02 [13] = assay: as above; settings: source organism: Orthomarburgvirus marburgense
HLA-A*31:01 [14] = assay: IEDB peptide-MHC binding, purified MHC/direct/fluorescence; filed as Kd, often an IC50 or EC50 that approximates it; ≥ and ≤ were set here for values at or beyond the usual limits of such assays; settings: source organism: Marburg virus - Musoke, Kenya, 1980
HLA-B*46:01 [15] = assay: as above; settings: source organism: Marburg virus - Musoke, Kenya, 1980
HLA-B*40:01 = assay: as above; settings: source organism: Marburg virus - Musoke, Kenya, 1980
HLA-B*08:02 = assay: as above; settings: source organism: Ravn virus - Ravn, Kenya, 1987
HLA-A*11:01 [16] = assay: as above; settings: source organism: Marburg virus - Musoke, Kenya, 1980
HLA-B*46:01 [17] = assay: IEDB peptide-MHC binding, purified MHC/competitive/fluorescence; filed as Kd, often an IC50 or EC50 that approximates it; ≥ and ≤ were set here for values at or beyond the usual limits of such assays; settings: source organism: Zaire ebolavirus
HLA-B*39:01 = assay: as above; settings: source organism: Zaire ebolavirus
HLA-B*45:06 = assay: as above; settings: source organism: Zaire ebolavirus
HLA-B*83:01 = assay: as above; settings: source organism: Zaire ebolavirus
HLA-B*27:03 = assay: as above; settings: source organism: Zaire ebolavirus
HLA-A*03:19 = assay: as above; settings: source organism: Zaire ebolavirus
HLA-C*06:02 = assay: as above; settings: source organism: Zaire ebolavirus
HLA-B*15:42 = assay: as above; settings: source organism: Zaire ebolavirus
HLA-A*26:01 = assay: as above; settings: source organism: Zaire ebolavirus
HLA-B*57:01 [18] = assay: as above; settings: source organism: Zaire ebolavirus
HLA-B*15:01 [19] = assay: as above; settings: source organism: Zaire ebolavirus
HLA-B*18:01 [20] = assay: as above; settings: source organism: Zaire ebolavirus
HLA-A*24:03 = assay: IEDB peptide-MHC binding, purified MHC/direct/fluorescence; filed as Kd, often an IC50 or EC50 that approximates it; ≥ and ≤ were set here for values at or beyond the usual limits of such assays; settings: source organism: Zaire ebolavirus
[21] = source organism: Lyssavirus rabies
[22] = source organism: Orthomarburgvirus marburgense
[23] = source organism: Marburg virus - Musoke, Kenya, 1980

With RQMKSGGRF the Kd (HLA-A*31:01 [1]) was ≥ 20 µM, the Kd (HLA-B*15:09) was ≥ 20 µM and the Kd (HLA-B*15:17; [21]) was 0.631 µM. For the same sequence, the Kd (HLA-A*30:01) was ≥ 20 µM, the Kd (HLA-A*11:01 [2]) was ≥ 20 µM and the Kd (HLA-A*02:06; [21]) was 0.476 µM. The Kd (HLA-A*01:01; [21]) was ≥ 20 µM, the Kd (HLA-B*27:05; [21]) was 0.275 µM and the Kd (HLA-B*73:01) was ≥ 20 µM. The Kd (HLA-B*08:01) was ≥ 20 µM, the Kd (HLA-A*03:01; [21]) was ≥ 20 µM and the Kd (HLA-A*69:01 [3]) was ≥ 20 µM. The Kd (HLA-B*07:02; [21]) was ≥ 20 µM, the Kd (HLA-B*57:01 [4]; [21]) was ≥ 20 µM and the Kd (HLA-B*48:01; [21]) was 1.62 µM. For the same sequence, the Kd (HLA-A*26:03 [5]) was ≥ 20 µM, the Kd (HLA-B*58:01; [21]) was ≥ 20 µM and the Kd (HLA-B*15:01 [6]; [21]) was 0.119 µM. The Kd (HLA-A*02:01 [7]; [21]) was ≥ 20 µM, the Kd (HLA-B*18:01 [8]; [21]) was ≥ 20 µM and the Kd (HLA-A*68:02 [9]) was ≥ 20 µM.

In the case of TVLEFILQK, the Kd (HLA-B*15:17; [22]) is reported as ≥ 20 µM, the Kd (HLA-B*35:01) is reported as ≥ 20 µM and the Kd (HLA-A*69:01 [10]) is reported as 0.827 µM. For the same sequence, the Kd (HLA-A*02:06; [22]) was 0.776 µM, the Kd (HLA-A*26:02) was ≥ 20 µM and the Kd (HLA-A*26:03 [11]) was ≥ 20 µM. For the same sequence, the Kd (HLA-A*02:01 [12]) was 1.17 µM, the Kd (HLA-A*68:02 [13]) was 3.88 µM and the Kd (HLA-A*31:01 [14]) was 0.119 µM. The Kd (HLA-A*01:01; [23]) was ≥ 20 µM, the Kd (HLA-B*46:01 [15]) was ≥ 20 µM and the Kd (HLA-B*27:05; [23]) was ≥ 20 µM. For the same sequence, the Kd (HLA-B*40:01) was ≥ 20 µM, the Kd (HLA-A*03:01; [23]) was 0.141 µM and the Kd (HLA-B*08:02) was ≥ 20 µM. The Kd (HLA-A*11:01 [16]) was 0.0023 µM, the Kd (HLA-B*07:02; [23]) was ≥ 20 µM and the Kd (HLA-B*57:01 [4]; [23]) was ≥ 20 µM. For the same sequence, the Kd (HLA-B*48:01; [23]) was ≥ 20 µM, the Kd (HLA-B*58:01; [23]) was ≥ 20 µM and the Kd (HLA-B*15:01 [6]; [23]) was ≥ 20 µM. The Kd (HLA-B*18:01 [8]; [23]) was ≥ 20 µM.

With VLYHRYNLV the Kd (HLA-B*46:01 [17]) was ≥ 20 µM, the Kd (HLA-B*39:01) was ≥ 20 µM and the Kd (HLA-B*15:17; source organism: Zaire ebolavirus) was ≥ 20 µM. The Kd (HLA-B*45:06) was ≥ 5 µM, the Kd (HLA-B*83:01) was ≥ 5 µM and the Kd (HLA-B*27:03) was ≥ 20 µM. For the same sequence, the Kd (HLA-A*03:19) was 0.0044 µM, the Kd (HLA-C*06:02) was 0.804 µM and the Kd (HLA-B*15:42) was ≥ 5 µM. The Kd (HLA-A*26:01) was ≥ 20 µM, the Kd (HLA-B*57:01 [18]) was ≥ 20 µM and the Kd (HLA-B*15:01 [19]) was ≥ 20 µM. The Kd (HLA-B*18:01 [20]) was ≥ 20 µM, the Kd (HLA-A*24:03) was ≥ 20 µM and the Kd (HLA-A*02:01 [7]; source organism: Sudan ebolavirus - Maleo (1979)) was 0.0181 µM.
